According to US20240043504A1 (published 2024):
Substitutions are numbered along the chain they refer to. Values joined by “and” are separate entries in the source; they are usually repeats but may differ in a detail not shown here. Equal values may be shown once.

Tests used:
[1] = target: SARS-CoV-2 spike protein (S-wt, Wuhan-Hu-1, NCBI Accession Number MN908947.3) on VSV pseudoparticles (SARS-CoV-2, UniProt P0DTC2 14-1273); test: cell-based or functional assay
[2] = target: full-length SARS-CoV-2 spike protein (amino acids M1-T1273 of accession number YP_009724390.1) on Ju (SARS-CoV-2, UniProt P0DTC2 14-1273); test: cell-based or functional assay
[3] = target: receptor binding domain (RBD) portion of the SARS-CoV-2 Spike protein (amino acids Arg319-Phe541) ex (SARS-CoV-2)
[4] = target: T1, MERS-CoV (NCoV/Novel coronavirus) Spike Protein S2 (aa 726-1296, His Tag) (Sino 40070-[change]) (MERS-CoV, UniProt K9N5Q8 726-1296); test: Luminex bead binding, supernatant
T1 sequence: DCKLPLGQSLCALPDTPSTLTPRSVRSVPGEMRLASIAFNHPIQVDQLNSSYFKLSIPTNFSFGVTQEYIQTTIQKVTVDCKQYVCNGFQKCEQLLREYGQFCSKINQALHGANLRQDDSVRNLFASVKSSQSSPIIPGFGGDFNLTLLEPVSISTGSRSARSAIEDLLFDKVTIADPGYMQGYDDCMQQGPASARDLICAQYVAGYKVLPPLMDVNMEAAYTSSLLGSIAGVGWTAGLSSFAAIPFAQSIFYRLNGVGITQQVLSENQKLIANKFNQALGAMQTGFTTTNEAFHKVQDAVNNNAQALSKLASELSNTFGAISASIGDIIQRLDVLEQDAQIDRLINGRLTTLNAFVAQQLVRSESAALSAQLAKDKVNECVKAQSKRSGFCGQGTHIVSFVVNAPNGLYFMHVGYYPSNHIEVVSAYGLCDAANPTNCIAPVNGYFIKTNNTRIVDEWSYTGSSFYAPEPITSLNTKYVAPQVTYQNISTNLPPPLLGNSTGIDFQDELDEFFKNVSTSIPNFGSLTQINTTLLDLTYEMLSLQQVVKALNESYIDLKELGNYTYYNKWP

[5] = target: T2, MERS-CoV (NCoV/Novel coronavirus) Spike Protein (ECD, aa 1-1297, His Tag) (Sino 40069-[change]) (MERS-CoV, UniProt K9N5Q8 18-1297); test: Luminex bead binding, supernatant
T2 sequence: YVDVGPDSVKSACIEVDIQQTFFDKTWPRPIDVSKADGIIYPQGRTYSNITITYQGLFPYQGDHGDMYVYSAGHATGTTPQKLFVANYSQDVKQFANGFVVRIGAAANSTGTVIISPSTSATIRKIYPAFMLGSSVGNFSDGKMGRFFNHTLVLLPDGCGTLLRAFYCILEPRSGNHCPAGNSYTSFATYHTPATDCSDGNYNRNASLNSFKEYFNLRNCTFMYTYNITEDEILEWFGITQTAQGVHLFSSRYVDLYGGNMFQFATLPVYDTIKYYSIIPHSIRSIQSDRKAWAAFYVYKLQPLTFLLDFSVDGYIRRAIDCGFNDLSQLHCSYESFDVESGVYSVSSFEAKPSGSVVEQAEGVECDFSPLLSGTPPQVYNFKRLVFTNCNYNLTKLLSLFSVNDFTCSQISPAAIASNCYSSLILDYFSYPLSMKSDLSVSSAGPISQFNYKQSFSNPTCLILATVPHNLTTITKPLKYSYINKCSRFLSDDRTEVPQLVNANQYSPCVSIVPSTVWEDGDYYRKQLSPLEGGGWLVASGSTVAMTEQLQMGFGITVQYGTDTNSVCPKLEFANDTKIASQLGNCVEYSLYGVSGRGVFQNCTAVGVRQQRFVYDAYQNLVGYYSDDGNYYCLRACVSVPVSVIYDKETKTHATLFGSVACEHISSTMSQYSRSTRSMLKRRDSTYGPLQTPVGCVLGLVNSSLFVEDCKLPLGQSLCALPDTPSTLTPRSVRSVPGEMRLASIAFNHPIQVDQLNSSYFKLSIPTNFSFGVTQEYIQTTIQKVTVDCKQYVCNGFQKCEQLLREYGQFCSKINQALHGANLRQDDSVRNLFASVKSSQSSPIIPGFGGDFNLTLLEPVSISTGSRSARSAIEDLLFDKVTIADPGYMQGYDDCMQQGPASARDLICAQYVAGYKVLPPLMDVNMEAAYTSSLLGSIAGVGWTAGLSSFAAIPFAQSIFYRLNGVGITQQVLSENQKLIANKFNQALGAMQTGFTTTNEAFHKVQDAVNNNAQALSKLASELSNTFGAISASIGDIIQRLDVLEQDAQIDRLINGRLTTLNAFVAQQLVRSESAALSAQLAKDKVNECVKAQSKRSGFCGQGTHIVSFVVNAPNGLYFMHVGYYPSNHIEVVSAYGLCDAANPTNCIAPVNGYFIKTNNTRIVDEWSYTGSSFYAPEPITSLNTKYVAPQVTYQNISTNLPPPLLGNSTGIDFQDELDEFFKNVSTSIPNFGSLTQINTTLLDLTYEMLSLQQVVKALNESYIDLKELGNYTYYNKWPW

[6] = target: SARS-CoV-2 Spike Protein (RBD)(R319-F541).hFc (mAb10622-L1) (SARS-CoV-2); test: Luminex bead binding, supernatant
[7] = target: SARS-CoV-2 Spike Protein (RBD)(R319-F541).mFc (mAb10621-L1) (SARS-CoV-2); test: Luminex bead binding, supernatant
[8] = target: Bt-SARS-CoV-2 Spike Protein (RBD)(R319-F541).mFc (mAb10621-L2) (SARS-CoV-2); test: Luminex bead binding, supernatant
[9] = target: Human SARS Coronavirus Spike S1 Subunit Protein (His Tag) (Sino 40150-V08B1) (Human SARS Coronavirus, UniProt P59594 14-667); test: Luminex bead binding, supernatant
[10] = target: T3, MERS-CoV (NCoV/Novel coronavirus) Spike Protein fragment (RBD, aa 367-606, His Tag) (Sino 40071-V08B1) (MERS-CoV, UniProt K9N5Q8 367-606); test: Luminex bead binding, supernatant
T3 sequence: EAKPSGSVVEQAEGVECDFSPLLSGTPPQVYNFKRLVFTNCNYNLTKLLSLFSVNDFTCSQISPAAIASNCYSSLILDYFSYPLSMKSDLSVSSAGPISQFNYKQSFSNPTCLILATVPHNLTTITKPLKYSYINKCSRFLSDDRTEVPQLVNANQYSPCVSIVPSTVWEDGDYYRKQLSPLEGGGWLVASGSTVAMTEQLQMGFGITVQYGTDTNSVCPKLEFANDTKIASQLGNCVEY

B1: mAb10934 (antibody, V domains shown)
VH: not shown
VL: DIQMTQSPSSLSASVGDRVTITCQASQDIWNYINWYQQKPGKAPKLLIYDASNLKTGVPSRFSGSGSGTDFTFTISSLQPEDIATYYCQQHDDLPPTFGQGTKVEIKR
- IC50 (M), neutralization [1]: 5.44e-11 M

B2: mAb10934 (antibody, V domains shown)
VH: not shown
VL: B1 VL
- ADCP EC50 [M], Jurkat/hCD20/SARS-CoV-2 Spike cells [2]: 2.72e-12 M
- ADCP Max (% ADCP), Jurkat/hCD20/SARS-CoV-2 Spike cells [2]: 40.1%
- IC50 [3]: 0.066 nM and 0.0597 nM

B3: mAb10933 (antibody, V domains shown)
VH: QVQLVESGGGLVKPGGSLRLSCAASGFTFSDYYMSWIRQAPGKGLEWVSYITYSGSTIYYADSVKGRFTISRDNAKSSLYLQMNSLRAEDTAVYYCARDRGTTMVPFDYWGQGTLVTVSS
VL: B1 VL with W30T, I33L, D50A, K55E, S77G, H91Y, D93N, P96L, Q100G
- IC50 (M), neutralization [1]: 4.28e-11 M

B4: mAb10954 (antibody, V domains shown)
VH: EVQLVESGGGLVQPGGSLRLSCAASGITVSSNYMSWVRQAPGKGLEWVSLIYSGGSTYYADSVKGRFTISRDNSKNTLYLQMNSLRVEDTAVYYCARDHGMAAAGYNYWGQGTLVTVSS
VL: B1 VL with W30N, N31K, I33L, K55E, S76N, I83F, Y87F, H91Y, D93N, T97A
- IC50 (M), neutralization [1]: 9.22e-11 M

B5: mAb10984 (antibody, V domains shown)
VH: EVQLVESGGGLVQPGGSLRLSCAASGLTVNRNYMSWVRQAPGKGLEWVSLIYSGGSTYYADSVKGRFTISRDNSKNTLYLQMNSLRLEDTAVYYCARGELGIPYGMDVWGQGTTVTVSS
VL: QSVLTQPPSVSAAPGQKVTISCSGSSSNIGNNYVSWYQQLPGTAPKLLIYDNNKRPSGIPDRFSGSKSGTSATLGITGLQTGDEADYYCGTWDSSLSAGVFGGGTKLTVLG
- IC50 (M), neutralization [1]: 9.73e-11 M

B6: mAb10920 (antibody, V domains shown)
VH: QVQLVESGGGVVQPGRSLRLSCAASGFTFSYYGMHWVRQAPGKGLEWVAVIWYDGSNKFYADSVKGRFTISRDNSKNTLYLQMNSLRAEDTAVYYCAAARPGYYYGMDVWGQGTTVTVSS
VL: DIQMTQSPSSLSASVGDRVTITCRASQGISNYLAWFQQKPGKAPNSLIYAASSLQRGVPSKFSGSGSGTDFTLTISSLQPEDFATYYCQQYNSYPRTFGQGTKVEIKR
- IC50 (M), neutralization [1]: 2.64e-10 M

B7: mAb10986 (antibody, V domains shown)
VH: EVQLVESGGGLVQPGGSLRLSCAASEFTVSSNYMSWVRQAPGKGLEWVSVIYSGGSTFYADSVKGRFTISRDNSKNTLYLQMNSLRAEDTAVYYCARALPYGDLHFDYWGQGTLVTVSS
VL: QSVLTQPPSVSGAPGQRVTISCTGSSSNIGTGYDVHWYQQLPGTAPKLLIYGNTNRPSGVPDRFSGSKSGTSASLAITGLQAEDEADYYCQSYDSSLSDSYVFGTGTKVTVLG
- IC50 (M), neutralization [1]: 9.91e-11 M

B8: mAb10936 (antibody, V domains shown)
VH: QVQLVESGGGVVQPGRSLRLSCAASGFTFRNYGMHWVRQAPGKGLEWVSVIWYDGSNRYYADSVKGRFTISRDTSKNTLYLQMNSLRAEDTAVYYCARDPPITGTTGGDAFDIWGQGTMVTVSS
VL: not shown
- IC50 (M), neutralization [1]: 1.11e-10 M

B9: mAb10987 (antibody, V domains shown)
VH: QVQLVESGGGVVQPGRSLRLSCAASGFTFSNYAMYWVRQAPGKGLEWVAVISYDGSNKYYADSVKGRFTISRDNSKNTLYLQMNSLRTEDTAVYYCASGSDYGDYLLVYWGQGTLVTVSS
VL: QSALTQPASVSGSPGQSITISCTGTSSDVGGYNYVSWYQQHPGKAPKLMIYDVSKRPSGVSNRFSGSKSGNTASLTISGLQSEDEADYYCNSLTSISTWVFGGGTKLTVLG
- ADCP EC50 [M], Jurkat/hCD20/SARS-CoV-2 Spike cells [2]: 6.33e-12 M
- ADCP Max (% ADCP), Jurkat/hCD20/SARS-CoV-2 Spike cells [2]: 56.7%

B10: mAb10987 (antibody, V domains shown)
VH: B9 VH
VL: B9 VL
- Binding signal (MFI) [4]: 23 MFI
- Binding signal (MFI) [5]: 15 MFI

B11: mAb10989 (antibody, V domains shown)
VH: QVQLVQSGAEVKKPGASVKVSCKASGYIFTGYYMHWVRQAPGQGLEWMGWINPNSGGANYAQKFQGRVTLTRDTSITTVYMELSRLRFDDTAVYYCARGSRYDWNQNNWFDPWGQGTLVTVSS
VL: B9 VL with G31T, Y51F, K55N, N62D, S82A, N91S, L93F, S95T, I96S, W99V
- ADCP EC50 [M], Jurkat/hCD20/SARS-CoV-2 Spike cells [2]: 4.86e-12 M
- ADCP Max (% ADCP), Jurkat/hCD20/SARS-CoV-2 Spike cells [2]: 56%
- IC50 [3]: 0.0591 nM and 0.0428 nM

B12: mAb11006 (antibody, V domains shown)
VH: EVQLVESGGGLVQPGGSLRLSCAASGFIVSRNYMSWVRQAPGKGLEWVSVIYSGGSTFYADSVKGRFTISRHNSKNTLYLQMNSLKAEDTAVYYCARELRGYFDYWGQGTLVTVSS
VL: DIQLTQSPSFLSASVGDRVTITCWASQGISSYLAWYQQKPGKAPKLLIYAASTLQSGVPSRFSGSGSGTEFTLTISSLQPEDFATYYCQLLNSYPYTFGQGTKLEIK
- Binding signal (MFI) [6]: 3980 MFI
- Binding signal (MFI) [7]: 2870 MFI
- Binding signal (MFI) [8]: 1400 MFI

B13: mAb10964 (antibody, V domains shown)
VH: QVQLQESGPGLVKPSETLSLTCTVSGGSINNYYWIWIRQPPGKGLEWIGYIYHSGSTNYNPSLKSRVTISVDTSKNQFSLKVSSVTAADTAVYYCANMVRGVYEDDYWGQGTLVTVSS
VL: DIQMTQSPSSLSASVGDRVTITCRASQSISNYLNWYQQKPGKAPKLLIFAASSLRSGVPSRFSGSGSGTDFTLTISSLHPEDFATYYCQQNYNTPLTFGPGTKVDIKR
- Binding signal (MFI) [9]: 5190 MFI
- Binding signal (MFI) [10]: 20 MFI
- Binding signal (MFI) [5]: 15 MFI
